Test results: paper PMC9482650, “Quantitative fragmentomics allow affinity mapping of interactomes” (Nature Communications, 2022)

T1: SHANK1, Q9Y566
T1 sequence (Q9Y566 658-767, limits assumed, looked up): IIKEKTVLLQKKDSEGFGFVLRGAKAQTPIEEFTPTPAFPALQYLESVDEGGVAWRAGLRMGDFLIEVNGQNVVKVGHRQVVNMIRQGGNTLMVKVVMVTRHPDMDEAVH

T2: PDZD7_3, Q9H5P4
T2 sequence (Q9H5P4 857-944, limits assumed, looked up): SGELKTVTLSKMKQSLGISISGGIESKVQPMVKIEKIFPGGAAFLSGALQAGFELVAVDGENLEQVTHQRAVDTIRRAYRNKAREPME

T3: MPP7, Q5T2T1
T3 sequence (Q5T2T1 134-230, limits assumed, looked up): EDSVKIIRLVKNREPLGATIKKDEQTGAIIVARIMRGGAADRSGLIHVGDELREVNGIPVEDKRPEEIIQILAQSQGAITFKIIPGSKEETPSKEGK

T4: DLG3_3, Q92796
T4 sequence (Q92796 374-475, limits assumed, looked up): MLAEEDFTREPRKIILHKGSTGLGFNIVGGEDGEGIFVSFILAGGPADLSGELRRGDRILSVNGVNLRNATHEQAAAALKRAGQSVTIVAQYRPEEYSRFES

T5: TIAM2, Q8IVF5
T5 sequence (Q8IVF5 885-986, limits assumed, looked up): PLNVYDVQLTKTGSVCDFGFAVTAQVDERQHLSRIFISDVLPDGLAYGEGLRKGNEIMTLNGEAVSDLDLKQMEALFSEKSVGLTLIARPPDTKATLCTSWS

T6: DFNB31_1, Q9P202
T6 sequence (Q9P202 135-233, limits assumed, looked up): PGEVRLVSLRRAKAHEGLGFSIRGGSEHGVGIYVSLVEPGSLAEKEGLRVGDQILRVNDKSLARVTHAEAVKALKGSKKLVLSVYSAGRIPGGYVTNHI

T7: LIN7B, Q9HAP6
T7 sequence (Q9HAP6 88-185, limits assumed, looked up): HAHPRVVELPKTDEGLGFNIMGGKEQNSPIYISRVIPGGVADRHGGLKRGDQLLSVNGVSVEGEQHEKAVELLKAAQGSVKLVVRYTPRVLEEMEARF

T8: ARHGAP21, Q5T5U3
T8 sequence (Q5T5U3 45-169, limits assumed, looked up): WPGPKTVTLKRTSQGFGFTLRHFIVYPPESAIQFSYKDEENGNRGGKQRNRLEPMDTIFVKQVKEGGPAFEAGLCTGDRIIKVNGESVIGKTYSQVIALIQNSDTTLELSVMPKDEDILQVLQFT

T9: RHPN1, Q8TCX5
T9 sequence (Q8TCX5 508-602, limits assumed, looked up): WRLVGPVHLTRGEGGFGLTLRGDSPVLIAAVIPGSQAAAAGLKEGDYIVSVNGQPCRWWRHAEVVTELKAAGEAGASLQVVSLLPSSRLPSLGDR

T10: MPDZ_12, O75970
T10 sequence (O75970 1857-1958, limits assumed, looked up): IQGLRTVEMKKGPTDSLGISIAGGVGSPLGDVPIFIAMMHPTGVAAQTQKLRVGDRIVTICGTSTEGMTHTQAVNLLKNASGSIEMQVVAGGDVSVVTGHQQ

T11: PDZRN3_1, Q9UPQ7
T11 sequence (Q9UPQ7 244-349, limits assumed, looked up): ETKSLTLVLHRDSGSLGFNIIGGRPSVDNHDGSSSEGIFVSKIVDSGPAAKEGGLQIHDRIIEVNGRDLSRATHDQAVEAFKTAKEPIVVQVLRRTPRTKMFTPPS

T12: DLG3_1, Q92796
T12 sequence (Q92796 125-227, limits assumed, looked up): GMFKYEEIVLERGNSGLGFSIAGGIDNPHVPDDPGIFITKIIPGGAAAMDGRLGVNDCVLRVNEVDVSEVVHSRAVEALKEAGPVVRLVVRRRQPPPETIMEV


How the values were obtained:
Assay in all cases: holdup assay
Set-up in all cases: key: below the threshold = too weak to quantify, mostly under pKd 3.1 to 4
Conditions in all cases: plain residues with an end cap or a label only (N-terminal biotin on a linker: ado-ado)
[1] = target: T1, SHANK1, Q9Y566
[2] = target: T2, PDZD7_3, Q9H5P4
[3] = target: HTRA2, O43464
HTRA2, O43464, sequence (O43464 355-458): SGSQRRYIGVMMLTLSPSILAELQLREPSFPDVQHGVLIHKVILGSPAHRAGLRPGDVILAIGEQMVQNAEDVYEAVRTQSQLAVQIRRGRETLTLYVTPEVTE

[4] = target: T3, MPP7, Q5T2T1
[5] = target: SCRIB_2, Q14160
SCRIB_2, Q14160, sequence (Q14160 857-960): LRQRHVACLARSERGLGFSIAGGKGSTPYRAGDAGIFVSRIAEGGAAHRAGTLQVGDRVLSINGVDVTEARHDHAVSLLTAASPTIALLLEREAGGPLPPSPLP

[6] = target: IL16_1, Q14005
IL16_1, Q14005, sequence (Q14005 210-306): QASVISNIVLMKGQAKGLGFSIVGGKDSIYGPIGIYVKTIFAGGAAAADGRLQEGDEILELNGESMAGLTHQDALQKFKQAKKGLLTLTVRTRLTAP

[7] = target: T4, DLG3_3, Q92796
[8] = target: GOPC, Q9HD26
[9] = target: T5, TIAM2, Q8IVF5
[10] = target: PTPN3, P26045
PTPN3, P26045, sequence (P26045 505-587): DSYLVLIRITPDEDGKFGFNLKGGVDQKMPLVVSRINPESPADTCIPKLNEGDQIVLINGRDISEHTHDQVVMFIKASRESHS

[11] = target: T6, DFNB31_1, Q9P202
[12] = target: LNX1_1, Q8TBB1
LNX1_1, Q8TBB1, sequence (Q8TBB1 261-371): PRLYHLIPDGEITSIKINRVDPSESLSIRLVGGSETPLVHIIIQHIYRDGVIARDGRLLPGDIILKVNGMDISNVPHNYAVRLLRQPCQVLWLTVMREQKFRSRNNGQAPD

[13] = target: T7, LIN7B, Q9HAP6
[14] = target: T8, ARHGAP21, Q5T5U3
[15] = target: T9, RHPN1, Q8TCX5
[16] = target: MAGI2_4, Q86UL8
MAGI2_4, Q86UL8, sequence (Q86UL8 772-865): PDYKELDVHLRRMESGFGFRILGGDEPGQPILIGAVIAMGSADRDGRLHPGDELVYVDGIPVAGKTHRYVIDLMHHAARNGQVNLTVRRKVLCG

[17] = target: PARD3_3, Q8TEW0
PARD3_3, Q8TEW0, sequence (Q8TEW0 582-685): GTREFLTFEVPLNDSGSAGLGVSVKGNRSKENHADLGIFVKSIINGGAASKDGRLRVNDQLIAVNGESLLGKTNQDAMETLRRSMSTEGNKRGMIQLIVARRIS

[18] = target: T10, MPDZ_12, O75970
[19] = target: SCRIB_3, Q14160
SCRIB_3, Q14160, sequence (Q14160 999-1103): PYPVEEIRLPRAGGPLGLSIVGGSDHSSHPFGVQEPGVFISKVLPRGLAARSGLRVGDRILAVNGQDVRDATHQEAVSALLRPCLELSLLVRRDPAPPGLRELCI

[20] = target: MAST1, Q9Y2H9
MAST1, Q9Y2H9, sequence (Q9Y2H9 962-1065): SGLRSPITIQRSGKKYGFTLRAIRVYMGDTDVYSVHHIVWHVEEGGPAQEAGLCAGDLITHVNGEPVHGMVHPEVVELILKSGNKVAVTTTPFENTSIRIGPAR

[21] = target: DLG1_1, Q12959
[22] = target: T11, PDZRN3_1, Q9UPQ7
[23] = target: ARHGEF12, Q9NZN5-2
ARHGEF12, Q9NZN5-2, sequence (Q9NZN5 other isoform, or with tags, fused parts or gaps): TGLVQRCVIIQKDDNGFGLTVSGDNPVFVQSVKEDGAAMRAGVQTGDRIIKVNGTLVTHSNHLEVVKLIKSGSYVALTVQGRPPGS

[24] = target: T12, DLG3_1, Q92796
[25] = target: LDB3, O75112
LDB3, O75112, sequence (O75112 1-94): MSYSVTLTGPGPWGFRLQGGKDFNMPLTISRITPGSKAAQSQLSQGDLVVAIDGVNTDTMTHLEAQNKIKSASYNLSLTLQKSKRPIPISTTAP

Row | pKd [1] | pKd [2] | pKd [3] | pKd [4] | pKd [5] | pKd [6] | pKd [7] | pKd [8] | pKd [9] | pKd [10] | pKd [11] | pKd [12] | pKd [13] | pKd [14] | pKd [15] | pKd [16] | pKd [17] | pKd [18] | pKd [19] | pKd [20] | Binder | further results
1 | below the threshold | 3.69 | below the threshold | below the threshold | below the threshold | below the threshold | below the threshold | below the threshold | 4.02 | 4.14 | 3.63 | below the threshold | 3.75 | below the threshold | below the threshold | below the threshold | below the threshold | 3.54 | 3.82 | 4.12 | EGGKKRESEA [APPL1, Q9UKG1] | pKd [21]: below the threshold; pKd [22]: below the threshold; pKd [23]: below the threshold; pKd [24]: below the threshold; pKd [25]: below the threshold
2 | below the threshold | 4.28 | below the threshold | below the threshold | 4.11 | below the threshold | 3.71 | 3.62 | below the threshold | 5.01 | 3.8 | below the threshold | below the threshold | below the threshold | 3.49 | 4.32 | below the threshold | below the threshold | 4.23 | 4.32 | GSSSKEGTSV [RRBP1, Q9P2E9] | pKd [21]: 4.02; pKd [22]: 4.33; pKd [23]: 3.91; pKd [24]: 3.69; pKd [25]: below the threshold
3 | below the threshold | below the threshold | below the threshold | below the threshold | below the threshold | below the threshold | below the threshold | below the threshold | 3.49 | 3.52 | below the threshold | below the threshold | 3.53 | 3.92 | below the threshold | below the threshold | 3.67 | below the threshold | 3.58 | below the threshold | VGIERETDVL [EZH1, Q92800] | pKd [21]: 3.6; pKd [22]: below the threshold; pKd [23]: below the threshold; pKd [24]: below the threshold; pKd [25]: below the threshold
4 | below the threshold | below the threshold | below the threshold | below the threshold | below the threshold | below the threshold | below the threshold | below the threshold | below the threshold | below the threshold | below the threshold | below the threshold | below the threshold | 4.08 | below the threshold | below the threshold | below the threshold | below the threshold | below the threshold | below the threshold | ADRDHASDQL [CTBP1, Q13363] | pKd [21]: below the threshold; pKd [22]: below the threshold; pKd [23]: below the threshold; pKd [24]: below the threshold; pKd [25]: below the threshold
